Experimental data: patent publication US20260035426A1

Experiments:
CM4 = target: T1, CM4; assay: cell-based or functional assay
T1 sequence (peptide): MVVLALTASG

CM1 = target: T2, CM1; assay: cell-based or functional assay
T2 sequence (peptide): MVPSALTASG

Chain of recombinant human MMP2 (P08253 110-660 limits assumed): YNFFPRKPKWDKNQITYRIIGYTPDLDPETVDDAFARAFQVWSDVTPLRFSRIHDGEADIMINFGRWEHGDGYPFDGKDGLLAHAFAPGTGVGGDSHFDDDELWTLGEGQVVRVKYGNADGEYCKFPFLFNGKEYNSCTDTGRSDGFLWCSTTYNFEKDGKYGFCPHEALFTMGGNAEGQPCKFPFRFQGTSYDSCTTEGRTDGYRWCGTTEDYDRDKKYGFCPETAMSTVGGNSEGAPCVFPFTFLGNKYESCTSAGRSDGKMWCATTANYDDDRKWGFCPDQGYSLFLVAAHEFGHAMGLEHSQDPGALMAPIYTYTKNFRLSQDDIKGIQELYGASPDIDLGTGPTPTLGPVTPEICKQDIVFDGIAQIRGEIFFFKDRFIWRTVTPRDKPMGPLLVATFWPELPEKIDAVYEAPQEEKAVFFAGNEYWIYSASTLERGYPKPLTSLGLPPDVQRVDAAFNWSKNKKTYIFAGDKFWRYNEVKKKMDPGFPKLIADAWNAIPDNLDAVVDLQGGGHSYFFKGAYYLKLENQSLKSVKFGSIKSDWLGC

| Substance | Cleavage efficiency (EC50) (CM4) [µg/mL] | Cleavage efficiency (EC50) (CM1) [µg/mL] |
| --- | --- | --- |
| recombinant human MMP9 (from UniProt P14780 107-707) (enzyme) | 0.2 | 0.05 |
| recombinant human MMP2 (from UniProt P08253 110-660) (enzyme) | 0.15 | 0.006 |
